Among the data in patent US20240018254A1 are Kd, koff and kon values, retold here.

As a reminder, the Kd is the equilibrium constant for the complex coming apart. One may read the koff as a measure of how fast the partners let go of each other. What is called kon is the second-order rate constant of association. Read a low kon as slower complex formation.

For the assay, the target named is FcγRIIIa-bio (UniProt P08637). The assay can be described thus: BLI (Fortebio), FcγRIIIa-bio on SA sensor, antibody 31.3-500 nM, 1:1 fit. On the technique in general: In BLI a coated tip is dipped into the sample, and binding shifts an interference pattern.
Chain of UniProt P08637 (P08637 17-208 limits assumed): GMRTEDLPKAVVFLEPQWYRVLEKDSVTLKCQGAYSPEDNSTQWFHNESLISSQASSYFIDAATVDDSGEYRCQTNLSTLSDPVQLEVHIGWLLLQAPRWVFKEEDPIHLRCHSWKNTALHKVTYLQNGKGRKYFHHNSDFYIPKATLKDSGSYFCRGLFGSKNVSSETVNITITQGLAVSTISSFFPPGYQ

Substance MEDI9447 (Oleclumab) (antibody) gave a Kd of 141 nM, a koff of 0.0342 s⁻¹ and a kon of 243000 M⁻¹ s⁻¹.
